Assay results: PMC11742385, “Selection and Characterization of a DNA Aptamer Recognizing High Mobility Group Box 1 Protein (HMGB1) and Enhancing Its Pro-inflammatory Activity”

Columns and labels:
[1] = target: T1, rhHMGB2 (UniProt P26583 1-209); experiment: microplate aptamer binding assay; 1 mM Mg2+, 1 mM Ca2+; 5 nM aptamer; SHMCK: 20 mM Hepes, 120 mM NaCl, 5 mM KCl, 1 mM MgCl2, 1 mM CaCl2, pH 7.4, 37 C, 1 h; protein coated 2 pmol/well, 3% BSA block, PBST washes; details: protein: commercial; predicted hairpin (9-50) and stem-loops (52-69) linked by a T
T1 sequence: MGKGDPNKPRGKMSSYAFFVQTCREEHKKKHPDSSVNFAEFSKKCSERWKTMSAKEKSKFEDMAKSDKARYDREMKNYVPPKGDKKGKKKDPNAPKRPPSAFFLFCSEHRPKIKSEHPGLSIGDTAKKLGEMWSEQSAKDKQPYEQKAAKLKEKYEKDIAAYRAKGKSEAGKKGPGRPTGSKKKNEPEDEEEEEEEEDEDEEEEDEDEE

[2] = target: rhHMGB1 (Homo sapiens, UniProt P09429 1-215); experiment: microplate aptamer binding assay (streptavidin-HRP); 1 mM Mg2+, 1 mM Ca2+; SHMCK: 20 mM Hepes, 120 mM NaCl, 5 mM KCl, 1 mM MgCl2, 1 mM CaCl2, pH 7.4, 37 C, 1 h; protein coated 2 pmol/well, 3% BSA block, PBST washes; details: protein: recombinant; tags: His tag implied (pET28a, Ni-NTA); predicted hairpin (9-50) and stem-loops (52-69) linked by a T
rhHMGB1, sequence (P09429 whole entry): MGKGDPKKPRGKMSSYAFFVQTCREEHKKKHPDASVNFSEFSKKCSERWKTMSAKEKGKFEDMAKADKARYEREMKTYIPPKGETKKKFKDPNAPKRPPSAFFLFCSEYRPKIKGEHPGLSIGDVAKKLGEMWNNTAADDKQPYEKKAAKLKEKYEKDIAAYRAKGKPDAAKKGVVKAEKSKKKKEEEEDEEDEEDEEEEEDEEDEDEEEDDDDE

[3] = target: T2, rhHMGB1 A box (Homo sapiens, UniProt P09429 9-79); experiment: microplate aptamer binding assay; dot blot; 1 mM Mg2+, 1 mM Ca2+; 5 nM aptamer (microplate); SHMCK: 20 mM Hepes, 120 mM NaCl, 5 mM KCl, 1 mM MgCl2, 1 mM CaCl2, pH 7.4, 37 C, 1 h; protein coated 2 pmol/well, 3% BSA block, PBST washes; details: protein: recombinant; tags: His tag implied (pET28a, Ni-NTA); predicted hairpin (9-50) and stem-loops (52-69) linked by a T
T2 sequence: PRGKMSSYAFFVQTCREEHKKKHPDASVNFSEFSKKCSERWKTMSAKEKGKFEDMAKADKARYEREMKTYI

B1: H-ap25 (structured_DNA)
DNA: GGACAAGAATCACCGCTCTGGGTTTGGCGTCGGGCCTGGCGAAAGGTGGTTGTGCGGAGAGAGCGTACAGGAGGCATACAG
binding result [1]: no binding
Kd [2]: 8.2 ± 0.53 nM
binding result [3]: no binding
